From a protein production outcome set (Wang et al. 2014)

Assay: label from the status in PepcDB records

| Sequence | protein production |
| --- | --- |
| MNRSRDKVRCALNHQNAGSIPVDFGSTAVTGIHCRIVEALRNYYGLAPRPVKIVDAFQMLGEIDAELAEKIGVDCIGIGGPKDIFDLDTTRMHEQTTPWGQRVLVPEAMDLTPDMRGDVYVYAGGDQNYPPSAVMPKGCYFINAIERQQPIEEDRLDPEDNVEEFGLLTENDLAYYCAEADKAYQTGRAVVASFGGTALGDVAFVPGMGLKQPKGIRSVVEWYMSTAMRQDYLHQVFEKEIDIAIANYEKLWAALGDKIDVVLTCGTDFGSQESQFCSIDTFRELWLPHYRRMNDWIHQHTTWKIFKHSCGAIIPILPGLIEAGFDIINPVQINAKDMDSRRLKEEFGSQLTFWGGGVDTQKILPFGTPDEIRRHVMGQCEILGRDGGFVFNAVHNVQANVPVDNVVAMFDALKDISLEHHHHHH | failed |
| MFFNFLIPPNSFSSFPEYVAFVVSLSYALNATLLLLYSRIFGVEVKEKAFIPVTLSFVAIDFTSIQGLRLFVGIPAYLGVVILTSLCILEGLALALTSSLALVNASRRHLAATWIAANVASSGLFMAFVGVS | failed |
| MGIKQYSQEELKEMALVEIAHELFEEHKKPVPFQELLNEIASLLGVKKEELGDRIAQFYTDLNIDGRFLALSDQTWGLRSWYPYDQLDEETQPTVKAKKKKAKKAVEEDLDLDEFEEIDEDDLDLDEVEEELDLEADDFDEEDLDEDDDDLEIEEDIIDEDDEDYDDEEEEI | failed |
| MKIGRYEVCGLLGRGGMGVVYKVRQPVTGRVAALKLLKPADILVDLAGMDALREGFLHEATVMASLDHPHVAAVWDVDEAGGLPFFVMEYYCLNLGLLMGESYRVEAPTRRLPLERAVRYARQTLEALRRMHHEGIVHRDVKPFNIMVTGDDAVKLIDFGLSRLRGETRLSPRGVKVGSPYYAPPEQESAPDAVDARADLYPVGVMLFRMLTGVLPTDEERMKDGRIPRASALSDELDEGWDAFFDTAMAADPARRFPDAASMLAALARCEAAWRKQVEATCRLIPEQAAGPGDASDMRHDAGHESVQAGQTDETGQAGQAGQAGQAVTCEGAPAASGGVRCRPVKVGVHEARATFALDALWRPASAARQGLEARDDGTVSHAATGLQWETGGCDFPLTRDEAEAYVEARNALRFAGHDDWRLPTVDELLTLVDAGVTVGDPCVASVFAPLPDPLWTSDRKSYMASWFVSAAMGFVGWQDDTCRFGVRLVRGGSARCRE | failed |
| MIAAPFLGLLLGLAALLLLASPWPFLAPLVVVGLFGLALLYRRPGWGLLGICALVPFEGLFKDSAFSGAKLLGASLILIMLFKLLLRQIPDSRLRSNLWRALGPFLLCLLLSMLYSENLLVSLDSLRELAVGLVLFFVTLLIAREVNLLMLCRLLAVSVAITCVIALVSAKYQVGGRAIGLLQDANYFALLIAMAVPPAIFLALRSPHWPVRLFWVGISLTLMAGMTKTDSRSGLLVVLFTIAIGVWHYRDRLKGLRPKHLGFAMFAVAIVIPLGIAVLPAEYVARIQSLSMLKSGAHSADTSLGRRTSYLVVGGQMIRQNPLLGSGLGTFPIHYAQTGFASSFSENMNEPDLFRRAHNTYLELFSELGIPGGLSFVALMLMGLRNFERARQGFLARGQREQADIATHLGLSLLAMAVFLLFLSAPNHKYLWIFLALSSVLRLQAEDAPVPRPAPA | failed |
| MDTVPPRTYNNSNFPEGLPAVSLSDEERARQQRWTPLRVTIWILISAIAGLGWWMLAVRRGETVNGIWFVFAAIGSYFIGYRFYAKYIQDKLVHPDDSRATPAEYDYNGRDFVPTDRRILYGHHFAAIAGAGPLVGPVLSAQMGYLPSTIWIIVGVILAGAVQDYLVLVISMRRGGRSLGQMAREELGRFGGIAALIATLTIMLIIVAILAMVVVNSLAASSWGVWSVGLTIPIALLMGFYLRYLRPGKVFEVSIIGIVLLVLAIASGAWIENTAVASALHLSKPFLAWAIIIYGFIAAVLPVWMLLAPRDYLSTFMKVGVIAMLAISIVIVRPVINVPAMTVYATNGAGPVFSGKLFPFLFVTIACGALSGFHATISSGTTPKLIEKESQARLIGYGGMLMESFVAIMALVAALSVDRGIYFAMNSPAGATGNTVKSAIAYVNSLGLSGVHANANTLTTTAKLVGETSIVSRTGGAPTLAVGLATIMHKIFGGEAMMSFWYHFAIMFEALFILTSVDAGTRVARFMLSDALGNFWPRLKDHSWKVGSWLTTAIMVAGWGSILLMGVTDPLGGINTLFPLFGIANQLLAAVALSICLVIFARAGHTWRLLIIFVPMLFTAIITVYGSWLKIFSPDPKLGYWANHMTYKRAIADGKTSLGQAKNIDEMHTVVGNTAIQGTMSIIFVVCALIVMIVACIRTVQALRGRNIIDTEDPAKPSKIFAPSGLMPTKAERDLQVEWDAFYEEHPELDLESVHKDKEHA | failed |
| LHRIVDKMHDTSTGIRPSPNMEQGSTYKKTFLGSSLVDWLISSNFAASRLEAVTLASMLMEENFLRPVGVRSMGAIRSGDLAEQFLDDSTALYTFAESYKKKVSSKE | not failed |
| MSETPERGLGSRAGVVLVDRYRLDERIGVGGMGEVWRATDILLSRPVAVKLLHLAQVSDPVSQQRFRTEAQITAALSHPNIAQVYDYGEQDGFSFLVMELITGESLSAIIKRNPGLDPDITLDVVDQAAQALSAAHANGVIHRDIKPGNLLVTEDGTVKLTDFGIARGNESVTLTQTGMVMGTAQYISPEQVSGKPASPLSDIYALGIVAYECLAGHPPFTADTPLALALAHSREPPPPLPDSVPPAVRELVECMLAKDPQERPSSAAEVSQWAQRLRAALNGGDATEALGLVSATAATAVVPAQPGPPTGDSTPVDGPHSGAQAQTWPPPQGKDSDRVAERSAAPNSRLNLPVVFALIATVGAVAVGIFLVGLLGKEPGTNGTPTSHRSVVPTLSRSPDTTENITTDSQTPVPDNPGGQLPPLNDEPEESYSPAPHPEPTTPPQSEYPSPPGDGADSTPDPGEEPGGPSDEDDADGGGAAPGGPTGGTGEESRGSTPP | failed |
| LEEALGILDTQRVEIAKRRHLNAVLRHIPAGVAAVDNQGVVQSLNPALAQLLDLPVSAALGRPLQQLCPELDLQQALQEGTGEENRVMRLGSHAVVSNLLPILENGERTGLVLTCQDITVVQRADQRIR | failed |
| HYSPFRSQPVDCVLWVKQELVAPNDYNPNNVAPPEKRLLQTSLEADGFTQPVVVIQQRPQAYTIVDGFHRHELACSKAALKKTLKGYLPVTCLTSEAASRDGLMAATIRHNRARGRHQ | failed |
| MHSLYLGVVKVMAKIILVYANCVNSTAKGDFALAGQIAKDLVREKTSDDIDVVLTSTLDGIARFESLYGKAVDGRVIIEGTSVGLCALELFESVDNEVVAFIEANRCKYAPSDILKRVLSPDSKFLFIGAANQKAIATGDKFTKSWLYISHKGDQPNVYEHFDEDDSLIQSVGLGDDRLGLPSLPKVDELPEMNSTQSQKIPSGEYGFMYLAAVHGIDDVYLMNQYMSLTEMGQYVLVGEYAKQSKEVQMVLHSLQYKGSSVSLTMPQIFFHDSVDNCLMRNMVSKSSGPLVVSTGVMSSIEAMQDGKLTYYQTMSNNTQFVASYLIAVKSICSSDTTLFGSMPKLIIDLSNLLFAEKPLKESQMKEIKSLLGMSSVTSRLGEMNKRIIAKANGTVAGELLSFIGKPKTTQSHKQCISVCMSLRKSGETTSPIFDQALRRAAAWGRLFELKVLIASMSTSDLNKKDKTGNQYTALHWAVMQGHLDCARLLVKSGASVDIQDKSGKSPLHYAIKRGDKETIKLLVQAGASLEIMDDSGAKPCDGSESWVPEYIKSCYEKSGHKSSSLF | failed |
| MYKIVSDSACDLSKEYLEKHDVTIVPLSVSFDGETYYRDGVDITRDECYQRMVDDPKLFPKTSLPSVESYADVFRSFVEQGFPVVCFTITTLFSGSYNSAINAKSLVLEDYPDANICVIDSKQNTVTQALLIDQFVRMLEDGLSFEQAMSKLDALMASARIFFTVGSLDYLKMGGRIGKVATAATGKLGVKPVIIMKDGDIGLGGIGRNRNKLKNSVLQVAKKYLDENNKDNFIVSVGYGYDKEEGFEFMKEVESTLDVKLDSETNVAIGIVSAVHTGPYPIGLGVIRKYETL | not failed |
| LRGTHSQLRCVLNAATQVAIIATDLRGVISTFNAGAEQMLGYSSSEAVGHLTLESLHLPEELESWAQSLTQRYGKAIPVSQAMLVEEGMAGGHEAREWTLVRRDGSHLQVNMLATPVLDDQGLWIGHLAICIDITERKRVHEA | failed |
| MEQTHLKYEQLKAILREMGSVLVAFSGGVDSTFLLRVAHGLLGDKAVAFTATSPTYPESEFREAVGLARSMGARQVVVESNELEIPGFAFNPRNRCYHCKKELFGLCGRTAAELGLAWVADGSNCDDLDDYRPGRAAAGELGVRSPLVEAGLTKADIRELSRELGLPTWDKQAFACLSSRFPYGTEITPERLRMVGACEEFLRENGFRVYRVRFHGDTARIETAPEEIPRLFDPSLRLRIAAFFREAGFAHVAVDLEGYRTGSMNTDAG | failed |
| MDRMYEQNQMPHNNEAEQSVLGSIIIDPELINTTQEVLLPESFYRGAHQHIFRAMMHLNEDNKEIDVVTLMDQLSTEGTLNEAGGPQYLAELSTNVPTTRNVQYYTDIVSKHALKRRLIQTADSIANDGYNDELELDAILSDAERRILELSSSRESDGFKDIRDVLGQVYETAEELDQNSGQTPGIPTGYRDLDQMTAGFNRNDLIILAARPSVGKTAFALNIAQKVATHEDMYTVGIFSLEMGADQLATRMICSSGNVDSNRLRTGTMTEEDWSRFTIAVGKLSRTKIFIDDTPGIRINDLRSKCRRLKQEHGLDMIVIDYLQLIQGSGSRASDNRQQEVSEISRTLKALARELECPVIALSQLSRGVEQRQDKRPMMSDIRESGSIEQDADIVAFLYRDDYYNRGGDEDDDDDGGFEPQTNDENGEIEIIIAKQRNGPTGTVKLHFMKQYNKFTDIDYAHADMM | failed |
| MNINVAELLNGNYILLLFVVLALGLCLGKLRLGSIQLGNSIGVLVVSLLLGQQHFSINTDALNLGFMLFIFCVGVEAGPNFFSIFFRDGKNYLMLALVMVGSALVIALGLGKLFGWDIGLTAGMLAGSMTSTPVLVGAGDTLRHSGMESRQLSLALDNLSLGYALTYLIGLVSLIVGARYLPKLQHQDLQTSAQQIARERGLDTDANRKVYLPVIRAYRVGPELVAWTDGKNLRELGIYRQTGCYIERIRRNGILANPDGDAVLQMGDEIALVGYPDAHARLDPSFRNGKEVFDRDLLDMRIVTEEVVVKNHNAVGKRLAQLKLTDHGCFLNRVIRSQIEMPIDDNVVLNKGDVLQVSGDARRVKTIADRIGFISIHSQVTDLLAFCAFFVIGLMIGMITFQFSTFSFGMGNAAGLLFAGIMLGFMRANHPTFGYIPQGALSMVKEFGLMVFMAGVGLSAGSGINNGLGAIGGQMLIAGLIVSLVPVVICFLFGAYVLRMNRALLFGAMMGARTCAPAMEIISDTARSNIPALGYAGTYAIANVLLTLAGTIIVMVWPGLG | failed |
| MTYQKIIDKINQQISQHVYLGASLALYDGQWQEFYLGETIPHHKTKAGLVYDLASVSKVVGVGTVIIFLLQANHLKLDEPLQAYYPNFHDSSVTIRQLLTHTSGIDPFIPNRNKLDFAALKQAINHIEVTKTKSFHYTDLNFILLGFLLEEFYDQSLDRIIKEHVLKPFGMEKTSFGPVKRAVPTGKTIPIGRVHDPKAQVLGIHTGSAGLFSNLEDLKCFVNHYLSDAFAKPLTQDFAYADKTRSLAWDLTGDWLFHTGYTGTFILLNIKKQSAAIFLSNRTYEKDERSQWILDRNDLIEVIKAALKKVSDSNCD | failed |
| MNNLNFTVIIPLFNKAEHILRTLQSVEWQKYPAAEIIVIDDGSTDEGPALVEKANIKNVKLVHQENQGVSAARNNGVALASHEYVAFLDADDEWLPLFLDEVARLIVKFPQAQFFGTRYQIVEPENNYCDAKIKLENINPEGVILDNYFDIASQGDLPFTMSSMVIERSLFQSIGGFPLNEPIGEDQDLFCRVALNTSIAYSPNIHSLYHKDAQNQASRINIPSTECGFSVRITKEARKDTKRKSAKYMLKYSATHLCHLAKLNIGNGHFSQARKLLSDPRCKLKPKHLIGLYGLSWIQQTSQWLANIIDYKQI | failed |
| MVHASQLNSYSLAILKLCLFILDFVLLCFFLMLTDEEIDSDSELDEYMEQQIAALPQNEINPEEDDESDSDEMGLDEDDDSSDEEDVEAEAPLKVAPPSKKMPNGAFEIAKGGKKNKSSGGKKRCPFPCGPSCKK | failed |
